# In PMC6233088:
# Molecular target: RGA5_S (RGA5 982-1116), small C-terminal fragment of RGA5 carrying the HMA domain (rice) (UniProt F7J0N2)
# Experiment: SEC
# UniProt F7J0N2, sequence (F7J0N2 982-1116): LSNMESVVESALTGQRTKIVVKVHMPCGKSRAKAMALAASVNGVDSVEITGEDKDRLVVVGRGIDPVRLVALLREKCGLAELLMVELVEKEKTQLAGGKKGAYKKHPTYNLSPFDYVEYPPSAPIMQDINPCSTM
substance,measurement,value
"dSP-AVR1-CO39 (AVR1-CO39 with its signal peptide deleted), wild type, recombinant (natural protein)",stoichiometry N,1
